The record followed here is US20140363428A1 (Chugai, published 2014).

Sequences and labels used below:
B1: IgG1-F1370 (antibody)
heavy: QVQLQESGPGLVKPSETLSLTCAVSGHSISHDHAWSWVRQPPGEGLEWIGFISYSGITNYNPSLQGRVTISRDNSKNTLYLQMNSLRAEDTAVYYCARSLARTTAMDYWGEGTLVTVSSASTKGPSVFPLAPSSKSTSGGTAALGCLVKDYFPEPVTVSWNSGALTSGVHTFPAVLQSSGLYSLSSVVTVPSSSLGTQTYICNVNHKPSNTKVDKKVEPKSCDKTHTCPPCPAPELRGGPKVFLFPPKPKDTLYITREPEVTCVVVDVSHEDPEVKFNWYVDGVEVHNAKTKPREEQYNSTYRVVSVLTVLHQDWLNGKEYKCKVSNKALPAPIEKTISKAKGQPREPQVYTLPPSRDELTKNQVSLTCLVKGFYPSDIAVEWESNGQPENNYKTTPPVLDSDGSFFLYSKLTVDKSRWQQGNVFSCSVMHEALDYHVTKKELSLSP
light: not shown
B2: IgG1-F1416 (antibody)
heavy: B1 heavy with V310P
light: not shown
B3: IgG1-F1378 (antibody)
heavy: B1 heavy with T256S, E258T, D435H, V438T, K440Q, E442S
light: not shown
B4: IgG1-F1420 (antibody)
heavy: B1 heavy with T256S, E258T, Y436W
light: not shown
B5: IgG1-F1379 (antibody)
heavy: B1 heavy with T256S, E258T, D435H, V438F, K440Q, E442S
light: not shown
B6: IgG1-F1413 (antibody)
heavy: B1 heavy with T309Q, Q313A
light: not shown
B7: IgG1-F1371 (antibody)
heavy: B1 heavy with K440R
light: not shown
B8: IgG1-F1419 (antibody)
heavy: B1 heavy with T256S, E258T, Y436W, K440R
light: not shown
B9: Fv-4-F947 (antibody, human IgG1, kappa)
heavy: QVQLQESGPGLVKPSETLSLTCAVSGHSISHDHAWSWVRQPPGEGLEWIGFISYSGITNYNPSLQGRVTISRDNSKNTLYLQMNSLRAEDTAVYYCARSLARTTAMDYWGEGTLVTVSSASTKGPSVFPLAPSSKSTSGGTAALGCLVKDYFPEPVTVSWNSGALTSGVHTFPAVLQSSGLYSLSSVVTVPSSSLGTQTYICNVNHKPSNTKVDKKVEPKSCDKTHTCPPCPAPELLGGPSVFLFPPKPKDVLYISRTPEVTCVVVDVSHEDPEVKFNWYVDGVEVHNAKTKPREEQYNSTYRVVSVLQPLHADWLNGKEYKCKVSNKALPAPIEKTISKAKGQPREPQVYTLPPSRDELTKNQVSLTCLVKGFYPSDIAVEWESNGQPENNYKTTPPVLDSDGSFFLYSKLTVDKSRWQQGNVFSCSVMHEALHYHVTQKSLSLSP
light: DIQMTQSPSSLSASVGDSVTITCQASTDISSHLNWYQQKPGKAPELLIYYGSHLLSGVPSRFSGSGSGTDFTFTISSLEAEDAATYYCGQGNRLPYTFGQGTKVEIERTVAAPSVFIFPPSDEQLKSGTASVVCLLNNFYPREAKVQWKVDNALQSGNSQESVTEQDSKDSTYSLSSTLTLSKADYEKHKVYACEVTHQGLSSPVTKSFNRGEC
B10: Fv-4-F1067 (antibody, human IgG1, kappa)
heavy: B9 heavy with V252T, Q309T, P310V, A313Q, S426E
light: B9 light
B11: Fv-4-F1061 (antibody, human IgG1, kappa)
heavy: B9 heavy with V252T, Q309T, P310V, A313Q, P389E
light: B9 light
B12: Fv-4-F1105 (antibody, human IgG1, kappa)
heavy: B9 heavy with V252T, Q309T, P310V, A313Q, V424S, S426R
light: B9 light
B13: Fv-4-F1070 (antibody, human IgG1, kappa)
heavy: B9 heavy with V252T, Q309T, P310V, A313Q, Q440R
light: B9 light
B14: Fv-4-F1062 (antibody, human IgG1, kappa)
heavy: B9 heavy with V252T, Q309T, P310V, A313Q, P389R
light: B9 light
B15: Fv-4-F1058 (antibody, human IgG1, kappa)
heavy: B9 heavy with V252T, Q309T, P310V, A313Q, Q388E
light: B9 light
B16: Fv-4-F1071 (antibody, human IgG1, kappa)
heavy: B9 heavy with V252T, Q309T, P310V, A313Q, Q440S
light: B9 light
B17: Fv-4-F1073 (antibody)
heavy: B9 heavy with V252T, Q309T, P310V, A313Q, S442R
light: B9 light
B18: Fv-4-F1068 (antibody, human IgG1, kappa)
heavy: B9 heavy with V252T, Q309T, P310V, A313Q, S426R
light: B9 light
B19: Fv-4-F1059 (antibody, human IgG1, kappa)
heavy: B9 heavy with V252T, Q309T, P310V, A313Q, Q388R
light: B9 light
B20: Fv-4-F1065 (antibody, human IgG1, kappa)
heavy: B9 heavy with V252T, Q309T, P310V, A313Q, V424R
light: B9 light
B21: Fv-4-F1072 (antibody)
heavy: B9 heavy with V252T, Q309T, P310V, A313Q, S442E
light: B9 light
B22: Fv-4-F1104 (antibody, human IgG1, kappa)
heavy: B9 heavy with V252T, Q309T, P310V, A313Q, V424E, S426R
light: B9 light
B23: Fv-4-F1106 (antibody)
heavy: B9 heavy with V252T, Q309T, P310V, A313Q, Q440R, S442E
light: B9 light
B24: Fv-4-F1063 (antibody, human IgG1, kappa)
heavy: B9 heavy with V252T, Q309T, P310V, A313Q, P389S
light: B9 light
B25: Fv-4-F1064 (antibody, human IgG1, kappa)
heavy: B9 heavy with V252T, Q309T, P310V, A313Q, V424E
light: B9 light
B26: Fv-4-F1060 (antibody, human IgG1, kappa)
heavy: B9 heavy with V252T, Q309T, P310V, A313Q, Q388S
light: B9 light
B27: Fv-4-F1066 (antibody, human IgG1, kappa)
heavy: B9 heavy with V252T, Q309T, P310V, A313Q, V424S
light: B9 light
B28: Fv-4-F1069 (antibody, human IgG1, kappa)
heavy: B9 heavy with V252T, Q309T, P310V, A313Q, Q440E
light: B9 light
B29: IgG1-F1414 (antibody)
heavy: B1 heavy with T309Q
light: not shown
B30: IgG1-F1428 (antibody)
heavy: B1 heavy with T256S, S306E, V310P, K440R
light: not shown
B31: IgG1-F1418 (antibody)
heavy: B1 heavy with Y436W, K440R
light: not shown
B32: IgG1-F1430 (antibody)
heavy: B1 heavy with T256S, V307E, V310P, K440R
light: not shown
B33: IgG1-F1415 (antibody)
heavy: B1 heavy with Q313A
light: not shown
B34: IgG1-F1425 (antibody)
heavy: B1 heavy with T256S, V305D, V310P, K440R
light: not shown
B35: IgG1-F1417 (antibody)
heavy: B1 heavy with Y436W
light: not shown
B36: IgG1-F1423 (antibody)
heavy: B1 heavy with T256S, V304D, V310P, K440R
light: not shown
B37: IgG1-F1424 (antibody)
heavy: B1 heavy with T256S, V304E, V310P, K440R
light: not shown
B38: IgG1-F1422 (antibody)
heavy: B1 heavy with T256S, V310P, K440R
light: not shown
B39: IgG1-F1434 (antibody)
heavy: B1 heavy with T256S, T309E, V310P, K440R
light: not shown
B40: IgG1-F1426 (antibody)
heavy: B1 heavy with T256S, V305E, V310P, K440R
light: not shown
B41: IgG1-F1433 (antibody)
heavy: B1 heavy with T256S, T309D, V310P, K440R
light: not shown
B42: IgG1-F1421 (antibody)
heavy: B9 heavy with V252T, Y254M, Q309T, A313Q, M430L, Y436W, V438Y
light: not shown

Changes are numbered by the printed parent chain.

In one test the target is T1, soluble human FcRn (human, UniProt P55899 24-297; P61769 21-119).
T1 construct: Heterodimer of alpha chain and beta2-microglobulin; also called hFcRn
T1 sequence (P55899 24-297 limits assumed, chain 1 of 2): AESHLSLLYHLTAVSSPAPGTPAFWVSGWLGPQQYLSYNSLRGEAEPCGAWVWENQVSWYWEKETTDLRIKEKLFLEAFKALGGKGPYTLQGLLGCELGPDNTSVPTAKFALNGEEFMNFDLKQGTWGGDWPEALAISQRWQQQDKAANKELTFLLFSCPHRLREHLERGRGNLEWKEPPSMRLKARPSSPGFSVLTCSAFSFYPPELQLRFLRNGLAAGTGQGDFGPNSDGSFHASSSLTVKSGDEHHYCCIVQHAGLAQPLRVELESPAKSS
T1 sequence (P61769 21-119 limits assumed, chain 2 of 2): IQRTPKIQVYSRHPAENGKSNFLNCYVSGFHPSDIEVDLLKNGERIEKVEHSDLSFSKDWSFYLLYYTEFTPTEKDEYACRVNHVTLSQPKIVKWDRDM
The test is described as follows: SPR (Biacore), pH 7.0. Background: In SPR one partner is held on a chip, and binding of the other changes the refractive index at the surface.
The term Kd denotes the equilibrium constant for the complex coming apart. Higher therefore signals lower affinity. With B1, the Kd turned out to be 0.091 µM.

Take B2: binding was characterised by a dissociation constant (Kd) of 0.013 µM.

For B3, the Kd turned out to be 0.36 µM.

As for B4, the Kd is 0.13 µM.

Molecule B5 returned a Kd of 0.28 µM.

On to B6, for which the Kd amounted to 0.037 µM.

Molecule B7 registered a Kd of 0.11 µM.

Regarding B8, the Kd was found to be 0.15 µM.

The next test deals with T1, soluble human FcRn. The test is described as follows: SPR (Biacore), pH 7.0. The source holds these as a separate data set.
Regarding B9, the affinity, expressed as Kd, was 0.0111 µM.

B10 came in with a Kd of 0.13 µM.

The molecule B11 yielded a Kd of 0.12 µM.

With B12, the Kd came to 0.15 µM.

In the case of B13, the Kd came to 0.17 µM.

For B14, binding was characterised by a dissociation constant (Kd) of 0.12 µM.

The molecule B15 displayed a Kd of 0.13 µM.

The molecule B16 returned a Kd of 0.12 µM.

In the case of B17, the Kd was 0.134 µM.

B18 registered a Kd of 0.17 µM.

In turn, B19 came in with a Kd of 0.14 µM.

On to B20, for which binding was put at a Kd of 0.14 µM.

B21 registered a dissociation constant Kd of 0.13 µM.

As to B22, the Kd came to 0.18 µM.

Consider B23, for which binding was put at a Kd of 0.14 µM.

For the molecule B24, binding was put at a Kd of 0.14 µM.

For the molecule B25, the Kd came to 0.13 µM.

The molecule B26 yielded a Kd of 0.14 µM.

In turn, B27 showed a Kd of 0.14 µM.

Turning to B28, binding was characterised by a dissociation constant (Kd) of 0.14 µM.

Another test deals with T1, soluble human FcRn. Description: SPR (Biacore), pH 7.0, 25 C.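 Further: antibodies captured on a protein L-coated CM4 chip with human FcRn injected as analyte, KD obtained from ka and kd fitted to sensorgrams, in sodium phosphate buffer.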
Description: An appropriate amount of protein L (ACTIGEN) was immobilized onto Sensor chip CM4 (GE Healthcare) by the amino coupling method, and the chip was allowed to capture an antibody of interest. Then, diluted FcRn solutions and running buffer (as a reference solution) were injected to allow human FcRn to interact with the antibody captured on the sensor chip. The running buffer used comprised 50 mmol/l sodium phosphate, 150 mmol/l NaCl, and 0.05% (w/v) Tween20 (pH 7.0). FcRn was diluted using each buffer. The chip was regenerated using 10 mmol/l glycine-HCl (pH 1.5). Assays were carried out exclusively at 25 degrees C. The association rate constant ka (1/Ms) and dissociation rate constant kd (1/s), both of which are kinetic parameters, were calculated based on the sensorgrams obtained in the assays, and KD (M) of each antibody for human FcRn was determined from these values. Each parameter was calculated using Biacore T100 Evaluation Software (GE Healthcare).
B1 displayed a Kd of 0.091 µM.

In the case of B29, the Kd was found to be 0.056 µM.

Turning to B2, binding was put at a Kd of 0.013 µM.

Molecule B30 showed a Kd of 0.015 µM.

In turn, B3 showed a Kd of 0.36 µM.

Molecule B31 came in with a Kd of 0.075 µM.

Take B4: the affinity, expressed as Kd, was 0.13 µM.

In turn, B32 registered a Kd of 0.031 µM.

For B33, the Kd turned out to be 0.059 µM.

Turning to B34, binding was put at a Kd of 0.019 µM.

On to B5, for which the Kd amounted to 0.28 µM.

With B35, the Kd amounted to 0.059 µM.

In the case of B6, binding was characterised by a dissociation constant (Kd) of 0.037 µM.

With B36, the Kd was 0.016 µM.

B37 displayed a Kd of 0.016 µM.

As to B38, the affinity, expressed as Kd, was 0.019 µM.

With B7, binding was characterised by a dissociation constant (Kd) of 0.11 µM.

B39 had a Kd of 0.036 µM.

Molecule B40 registered a Kd of 0.018 µM.

The molecule B8 returned a Kd of 0.15 µM.

The molecule B41 registered a Kd of 0.045 µM.

On to B42, for which the Kd is 0.032 µM.
